Assay results: patent publication US8071348B2, “Protein tyrosine phosphatase substrate-trapping double mutant and uses thereof” (Albert Einstein College of Medicine of Yeshiva University, priority 2002, dated 2011)
Read-outs that look alike come from different tables or passages of the source. [ ]: non-standard residue; d: D form. F2Pmp = N[C@@H](Cc1ccc(C(F)(F)P(=O)(O)O)cc1)C(=O)O

T1: EGFR 988-998 peptide DADEpYLIPQQG
T1 chain: DADEXLIPQQG

T2: EGFR^988-998 peptide, DADEpYLIPQQG (Homo sapiens, UniProt P18031, D181A)
T2 construct: The catalytic domain of PTP1B (residues 1 to 321) was used for in vitro study; made in house; host or cells: E. coli (pT7-7 plasmids)
T2 sequence (P18031 1-321 D181A): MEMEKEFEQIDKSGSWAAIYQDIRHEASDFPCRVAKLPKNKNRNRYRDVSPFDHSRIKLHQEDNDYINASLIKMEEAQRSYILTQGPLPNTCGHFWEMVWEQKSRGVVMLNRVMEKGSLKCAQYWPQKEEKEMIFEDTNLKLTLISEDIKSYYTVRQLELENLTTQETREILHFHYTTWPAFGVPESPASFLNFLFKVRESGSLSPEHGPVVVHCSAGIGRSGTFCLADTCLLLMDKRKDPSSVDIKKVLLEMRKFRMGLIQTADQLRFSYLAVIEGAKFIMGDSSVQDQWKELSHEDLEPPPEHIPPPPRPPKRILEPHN

T3: Ac-Asp-Ala-Asp-Glu-F2Pmp-Leu-NH2
T3 construct: Synthetic hexapeptide printed in three-letter code; also called F2Pmp-containing peptide; non-hydrolyzable substrate analog
T3 peptide: Ac-DADE[F2Pmp]L-NH2


Columns and labels:
[1] = biological target: T1, EGFR 988-998 peptide DADEpYLIPQQG
[2] = Kinetic constants for PTP1B-catalyzed hydrolysis of pNPP; assay type: biochemical; conditions: pNPP as substrate
Excerpt: (§1) The catalytic domain of PTP1B (residues 1 to 321) was used for in vitro study. PTP1B mutants, C215S, D181A, and Q262A, were described previously (9, 25, 26). PTP1B double mutants, D181A/C215S and C215S/Q262A, were generated by PCR reactions, according to the standard procedure of the Quick-Change™ site-directed mutagenesis kit (Stratagene), using pT7-7/PTP1B/C215S as a template. PTP1B double mutants, D181A/C215E and D181A/Q262A, were generated by similar PCR procedures, using pT7-7/PTP1B/D181A as a template. The recombinant wild-type and mutant PTP1Bs were expressed in E. coli, and purified to homogeneity as described (25, 27). Protein concentration was determined from absorbance measurement at 280 nm, using an absorbance coefficient of 1.24 for 1 mg/ml PTP1B.
PTP activity was assayed at 25° C. and pH 7.0, in a reaction mixture (0.2 ml) containing pNPP concentrations ranging from 0.2 to 5 Km. The following buffered solution was used for activity measurements: pH 7.0, 50 mM 3,3-dimethylglutarate, 1 mM EDTA; the ionic strength was 0.15 M, as adjusted by addition of NaCl. Initial rate measurements for the enzyme-catalyzed hydrolysis of pNPP were conducted as previously described (26). Michaelis-Menten kinetic parameters were determined from a direct fit of the data to the Michaelis-Menten equation, using the nonlinear regression program, KINETASYST (Intellikinetics, State College, Pa.).

[3] = biological target: T2, EGFR^988-998 peptide, DADEpYLIPQQG; experiment: Kinetic constants for PTP1B-catalyzed hydrolysis of pTyr-containing EGFR988-998 peptide; assay type: biochemical; conditions: EGFR988-998 peptide as substrate
Excerpt: as §1
(§2) All assays were performed at 25° C. in buffer (pH 7.0, ionic strength=0.15 M) containing 50 mM 3,3-dimethylglutarate and 1 mM EDTA. A continuous spectrophotometric assay, previously described (28), was employed to determine kcat and Km for the pTyr-containing peptides. The dephosphorylation reaction was monitored by either an increase in absorbance at 282 nm, or an increase in fluorescence at 305 nm. Fluorometric and absorbance determinations were performed on a Perkin-Elmer LS50B fluorometer and a Perkin-Elmer Lambda 14 spectrophotometer, respectively. The instruments were equipped with a water-jacketed cell holder, permitting maintenance of the reaction mixture at the desired temperature (25° C.).

[4] = tested on: EGFR^988-998 peptide, DADEpYLIPQQG; experiment: as above; assay type: biochemical; conditions: EGFR988-998 peptide as substrate
Excerpt: as §1, §2

EGF receptor = experiment: Substrate protection: EGF receptor tyrosine phosphorylation in COS1 cells expressing PTP1B forms (anti-pTyr Western blot); assay type: cell-based, Monkey; conditions: COS1 cell lysates, anti-pTyr immunoblot (FIG. 4)
Experimental: FIG. 4 sets forth Western blots (WB) that show the level of tyrosine phosphorylation in the epidermal growth factor receptor (EGFR) upon expression of the wild-type and mutant PTP1Bs (4 μg plasmid/60 mm dish) in COS1 cells. Samples (50 μg total protein) were taken from the lysates of COS1 cells transfected with 4 μg of pJ3H plasmids expressing HA-tagged wild-type PTP1B, D181A, C215S, D181A/Q262A, or D181A/C215S. These samples were loaded into each lane for SDS-PAGE electrophoresis, and transferred onto a nitrocellulose membrane. The proteins on the membrane were first immunoblotted with anti-pTyr HRP conjugate (upper panel). The membrane was then stripped and re-probed with anti-hemagglutinin (anti-HA) HRP conjugate (lower panel).
The hemagglutinin-tagged (HA-tagged) full-length human wild-type PTP1B in pJ3H expression vector was a gift from Dr. Chemoff (30). The HA-tagged PTP1B mutants, C215S, D181A, D181A/C215S, and D181A/Q262A, were generated by PCR reactions, according to the standard procedure of the Quick-Change™ site-directed mutagenesis kit (Stratagene), using pJ3H-HA-PTP1B as a template. All mutations were verified by DNA sequencing.
Monkey kidney COS1 cells (ATCC: CRL-1650) were maintained in Dulbecco's modified Eagle's minimum essential medium (DMEM), supplemented with 10% fetal bovine serum (Life Technologies, Inc.), penicillin (50 units/ml), streptomycin (50 μg/ml), and L-glutamine (2 mM) under a humidified atmosphere containing 5% CO2. In transient transfection experiments, COS1 cells were inoculated at a density of 2×10^5 cells/60-mm dish, and grown overnight in DMEM containing 10% fetal bovine serum. Transfection was performed using LipoTAXI^R according to the manufacturer's recommendations (Stratagene, Cedar Creek, Tex.). Each transfection assay included 4 μg of purified DNA mixed with LipoTAXI^R in a 1:5 DNA:lipid ratio per 60-mm dish of cells. Following transfection, the cells were exchanged to normal culture medium, and maintained for 44 to 48 h at 37° C. and 5% CO2. The efficiency of transfection, as assessed by 5-bromo-4-chloro-3-indolyl-β-D galactoside (X-Gal) staining of pCMV-β-gal-transfected (β-Gal staining kit, Invitrogen) COS cells, was 25%.
The transfected cells (treated with or without EGF) were lysed with “lysis buffer” containing 50 mM Tris-HC1 (pH 7.5), 5 mM EDTA, 150 mM NaCl, 10 mM sodium phosphate, 10 mM sodium fluoride, 5 mM iodoacetic acid, 1 mM benzamidine, 1% Triton X-100, 10 μg/ml leupeptin, and 5 μg/ml Aprotinin. Lysate protein concentration was estimated using Bio-Rad protein assay reagent (Bio-Rad, Hercules, Calif.).
For immunoprecipitation, 1 mg of cell lysate was immunoprecipitated overnight with 30 μl of agarose-conjugated anti-hemagglutinin antibody at 4° C. Immunocomplexes were washed four times with the cell lysis buffer, and boiled for 5 min in SDS-PAGE sample buffer. Proteins in the cell lysate were separated by 8% SDS-PAGE under reducing conditions, according to the method of Laemmli (31), followed by blotting onto nitrocellulose membranes (Protran, Schleicher & Schuell). The nitrocellulose membranes were blocked with 5% non-fat dry milk in Tris-buffered saline/Tween (TBST) buffer (20 mM Tris-HC1, 150 mM NaCl, 0.1% Tween-20; pH 7.6) for 1 h at 25° C.
Thereafter, blots were incubated overnight with primary antibodies diluted in TBST containing 5% non-fat dry milk at 4° C. […]

[5] = tested on: Ac-Asp-Ala-Asp-Glu-F2Pmp-Leu-NH2; conditions: cited from earlier work
[6] = biological target: T3, Ac-Asp-Ala-Asp-Glu-F2Pmp-Leu-NH2; experiment: ITC, 25 C, pH 7.0
Experimental: (§3) All isothermal titration calorimetry experiments were performed using an MCS Isothermal Titration Calorimetry System from Microcal Inc. (Northampton, Mass.). Experiments at pH 7.0 were conducted at 25° C., in 50 mM 3,3-dimethylglutarate buffer containing 1 mM DTT. The ionic strength of the buffer was adjusted to 0.15 M by addition of NaCl. Protein concentration in the calorimeter cell was 27-85 µM, while the ligand concentration in the syringe was 0.37-1 mM.
(§4) A typical titration curve and binding isotherm for the binding of D181A/Q262A to Ac-Asp-Ala-Asp-Glu-F_2Pmp-Leu-NH_2 is shown in FIG. 3. From curve-fitting of the binding isotherms, the stoichiometry for the binding of the peptide to D181A/Q262A was determined to be 1:1.

[7] = biological target: T3, Ac-Asp-Ala-Asp-Glu-F2Pmp-Leu-NH2; experiment: ITC, 25 C, pH 7.0
Experimental: as §3
The PTP1B samples used in the isothermal titration calorimetry experiments were dialyzed completely against buffer. High-concentration stock solutions were prepared for ligands with distilled water, and adjusted to pH 7.0. […] Protein dilution during titration was determined by titration of buffer into the protein solution. […] The heat of ligand dilution was corrected by subtracting the average heat of injection after saturation.
as §4

[8] = biological target: Ac-Asp-Ala-Asp-Glu-F2Pmp-Leu-NH2; experiment: Isothermal titration calorimetry, binding of PTP1B and mutants to F2Pmp peptide; conditions: ITC, 25° C. and pH 7.0; data from this study
Experimental: FIG. 3 portrays calorimetric isothermal titration for the reaction of peptide Ac-Asp-Ala-Asp-Glu-F2Pmp-Leu-NH2 with PTP1B/D181A/Q262A. The upper graph depicts raw data for thirty 8-μl injections of the peptide (0.5 mM stock) into the isothermal cell containing 32 μM PTP1B/D181A/Q262A, at 4-min intervals and 25° C. Both the protein and the peptide were in 50 mM 3,3-dimethylglutarate buffer (I=0.15 M, pH 7.0) containing 1 mM DTT. The lower graph depicts an integration curve showing experimental points that were obtained by integration of the above peaks as plotted against the molar ratio of the peptide to PTP1B/D181A/Q262A within the reaction cell. The solid line corresponds to the best fit to the data according to the nonlinear, least-squares regression algorithm, ORIGIN (29).
as §3, with “Experiments at pH 7.0 were conducted at 25° C., in 50 mM 3,3-dimethylglutarate buffer containing 1 mM DTT.” left out, “μM,” for “µM,”
The PTP1B samples used in the isothermal titration calorimetry experiments were dialyzed completely against buffer. High-concentration stock solutions were prepared for ligands with distilled water, and adjusted to pH 7.0. Stock was diluted at least 26-fold with 50 mM 3,3-dimethylglutarate buffer before titration. Protein dilution during titration was determined by titration of buffer into the protein solution. […] The heat of ligand dilution was corrected by subtracting the average heat of injection after saturation.
The binding data were analyzed using ORIGIN software (29). Binding constant, K, and enthalpy change, ΔH, were used to calculate free energy change, ΔG, and entropy change, ΔS, according to equation [1]: −RTLnK=ΔG=ΔH−TΔS [1] where R is the gas constant and T is the absolute temperature.

Molecule	Km (hydrolysis of the EGFR 988-998 peptide, 25 C, pH 7.0) [1] [µM]	Km, fold lower than wild-type enzyme [2] [fold]	kcat, fold lower than wild-type enzyme [2] [fold]	Km ([2]; 25° C. and pH 7.0) [µM]	kcat ([2]; 25° C. and pH 7.0)	Km, fold higher than PTP1B (wild-type) [3] [fold]	kcat, fold lower than PTP1B (wild-type) [3] [fold]	Km ([4]; 25° C. and pH 7.0) [µM]	kcat ([4]; 25° C. and pH 7.0)	level of pTyr in the EGF receptor / enhancement of EGF receptor phosphorylation (EGF receptor)	binding, fold tighter than the C215S mutant ([5]; F2Pmp peptide, previously determined (24)) [fold]	Kd ([5]; ITC, 25° C. and pH 7.0, data from (24)) [nM]	fold lower affinity than the C215S mutant [6] [fold]	fold lower affinity than the D181A mutant [6] [fold]	TΔS [7] [kcal/mol]	ΔG [7] [kcal/mol]	ΔH [7] [kcal/mol]	phosphatase activity [4]	Kd [8] [nM]
PTP1B/D181A, catalytic domain (residues 1 to 321) (protein) MEMEKEFEQIDKSGSWAAIYQDIRHEASDFPCRVAKLPKNKNRNRYRDVSPFDHSRIKLHQEDNDYINASLIKMEEAQRSYILTQGPLPNTCGHFWEMVWEQKSRGVVMLNRVMEKGSLKCAQYWPQKEEKEMIFEDTNLKLTLISEDIKSYYTVRQLELENLTTQETREILHFHYTTWPAFGVPESPASFLNFLFKVRESGSLSPEHGPVVVHCSAGIGRSGTFCLADTCLLLMDKRKDPSSVDIKKVLLEMRKFRMGLIQTADQLRFSYLAVIEGAKFIMGDSSVQDQWKELSHEDLEPPPEHIPPPPRPPKRILEPHN	56	30	320	80 ± 30	(3.1 ± 0.3) × 10^−2 s^−1	22	920	56 ± 2	(6.5 ± 0.2) × 10^−2 s^−	higher in cells expressing the D181A, rather than the C215S, mutant	5	40 ± 10	–	–	–	–	–	–	–
PTP1B/D181A/C215E, catalytic domain (residues 1 to 321) (enzyme, human, UniProt P18031 1-321, looked up, range 1-321; Used in vitro (ITC)) MEMEKEFEQIDKSGSWAAIYQDIRHEASDFPCRVAKLPKNKNRNRYRDVSPFDHSRIKLHQEDNDYINASLIKMEEAQRSYILTQGPLPNTCGHFWEMVWEQKSRGVVMLNRVMEKGSLKCAQYWPQKEEKEMIFEDTNLKLTLISEDIKSYYTVRQLELENLTTQETREILHFHYTTWPAFGVPESPASFLNFLFKVRESGSLSPEHGPVVVHESAGIGRSGTFCLADTCLLLMDKRKDPSSVDIKKVLLEMRKFRMGLIQTADQLRFSYLAVIEGAKFIMGDSSVQDQWKELSHEDLEPPPEHIPPPPRPPKRILEPHN	–	–	–	–	–	–	–	–	–	–	–	–	7	32	-20.4	-8	-28.4	no measurable activities	1300
